Patent publication US20250367270A1
pKd: −log10 of the molar value.

Molecular target: SARS-CoV-2 recombinant spike HexaPro protein (SARS-CoV-2) (UniProt P0DTC2)
Test: SPR
Settings: Fc fusion

Substance FcACE2 dimer construct (Fc-linker-ACE2) has a pKd of 9.37.
